# According to the nanobody polyreactivity screen of Harvey et al. (2022):
# Assay: yeast display, Sf9 membrane polyspecificity reagent, FACS + sequencing; frameworks hold sequencing errors
# Outline: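 A synthetic nanobody library was expressed on Saccharomyces cerevisiae BJ5465 by galactose induction for 36–48 hours. The library was stained for 1 hour at 4 °C with 10% biotinylated, detergent-solubilized Sf9 membrane reagent and enriched with streptavidin microbeads before FACS. Low and high (top ~1%) gates were set on anti-HA fluorescence for expression and streptavidin fluorescence for reagent binding, and each polyreactivity label reflects the gate of origin.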
row,Sequence,polyreactivity (PSR sort gate)
1,QVQLVESGGGLVQAGGSLRLSCAASGRIFDIYTMGWYRQAPGKERELVASITKRGGSTYYADSVKGRFTISRDNAKNTVYLQMKSLKPEDTAVYFCNVAGKQKPYYVTTRLDYWGQGTQVTVSS,high polyreactivity
2,QVQLVESGGGLVQAGGSLRLSCAASGFTFVYYVMGWYRQAPGKERELVAAITYSGGSTYYADSVKGRFTISRDNAKNTVYLHMNSLKPEDTAVYYCAKEVQTYWYHYYYWGQGTQVTVSS,high polyreactivity
3,QVQLVDSGGGLVQAGGSLRLSCAASGRIFYVYAMGWYRQATGKERQLVASIRYSGATTYYADSVKGRFTISLDNAKNTVYLQMNSLKPEDTAVYYCAADTLGTPAYRYEYWGQGTQVTVSS,low polyreactivity
4,QVQLVESGGGLVQAGGSLRLSCAASGYTFYANAMGWYRQAPGTEREFVASITWSGGSTYYADSVKGRFTISRDNAKNTVYLQMNSLKPEDTAVYYCAAESWFKYDYWGQGTQVTVSS,low polyreactivity
5,QVQLVESGGGLVQAGGSLRLSCAASGLILRRYAMGWYRQAPGKDRELVAAISWSGGRTYYADSVKGRFTISRDNAKNTVYLQMISLKPEDTAVYYCAAGYIYWYYSYDYWGQGTQGTVSS,high polyreactivity
6,QVQLVESGGGLVQAGGSLRLSCAASGLIFGVNAMGWYRQAPGKEMELVAAITSRGGSTYYADSVKGRFTISRDNAKNTVYLQMNSLKPEDTAVYYCAAKYAYYEPYSWRPQRTYNYWGQGTQVTVSS,high polyreactivity
7,QVQLVESGGGLVQAGGSLRLSCAASGSTLNYNAMGWYRQAPGKERELVAAISWSGGSTYYADSVKGRFTISRDNAKNTVYLQMNSLKPEDTAVYYCAADQSTVLDVGSWGQGTQVTGSS,low polyreactivity
8,QVQLVESGGGLVQAGGSLRLSCDASGSIFAWYAMGWYRQAPGKERELVATITWSGGSTYYADSVKGRFTISRDNANNTVYLQMNSLKQEDTAVYYCAADRVWPYYQYDYWGQGTQVSVSS,low polyreactivity
9,QVQLVESGGGLVQAGGSLRLSCAASGLTFYGNAMGWYRQAPGKETELVADISLSGGRTFYADSVKGRFTISRDNAKNTVYLQMNSLKPEDTAVYYCAKTYTSGYHRRYDYWGQGTQVTVSS,low polyreactivity
10,QVQLVESGGGLVQAGGSLRLSCAASGLTFVTNAMGWYRQAPGKERELVAGISWSDGSTYYADSVKGRFTISRDNAKNTVYLQMNSVKPEDSAVYYCNAGVDLHYGYITYGVYGYDYWGQGTQVTVSS,low polyreactivity
11,QVQLVESGGGLVQAGGSLRLSCAGSGSIFGVYDLGWYRQAPGKERELVAVINSNGGSTYYADSVKGRFTISRDNAKNTVYLQMNSLKPEDTAVYYCAADYQSYVYIGYGYWGQGTQVTVSS,low polyreactivity
12,QVQLVESGGGLVQAGGSLRLSCAASGRTIYYNGMGWDRQAPGKERELVAAITSGGTTSYADSVKGRFTISRDNAKNTVYLQMNSLKPEDTAVYYCARVTDGVVYEYDYWGQGTQVTVSS,low polyreactivity
13,QVQLVDSGGGLVQAGGSLRLSCAASGFTFYSYAMGWYRQAPGKERELVASITSGGSTYYADSVKGLFTISRDNGKNTVYLPMNSLNPEYTAVSYCAATRGYSQYGRVRKYGYWGLGTQVTVSS,high polyreactivity
14,QVQLVESGGGLVQAGGSLRLSCAASGNTFYGYAMGWYRQAPGKERELVASITLSGDSTYYADSVKGRFTISRDNAKNTVYLQMNSLKPEDTAVYYCGGVYTYPLGYYHYTYDYWGQGPQVTVSS,low polyreactivity
15,QVQLVESGGGLVQAGGSLRLSCAASGITFYSYTMGWYIQAPGKERELVAAISDNGGRTFYADSVKGRFTISRDNAKNTVYLQMNSLKPEDTAVYYCAADSYWYRFLKSRYDYWGQGTQVTVSS,low polyreactivity
16,QVQLQESGGGLMQAGGSQRLSCAESGSISYYSDMGWYRQAPGKEREFVAGIGYGTTTNYADSVKGRFTTSRDNAKNTVYLQMISMKPEDTAVYSCAAYQGNGYEFYYWGQGTQVTVRS,low polyreactivity
17,QVQLVESGGGLVQAGGSLRLSCAASGSILKVYAMGWYRQAPGKERELVAGITRSGVRTNYADSVKGRFTISRDNAKNTVYLQMNSLKPEDTAVCYCAAVGYVYRTYWYTRQSTYEYWGQGTQVTVSS,high polyreactivity
18,QVQLVESGGGLVQAGGSLRLSCAASGFILDYYAMGWYRQAPGKERELVATITGRGDRTYYADSVKGRFTISRDNAMNTVYLQMNSLKPEDTAVSYCAAGFDGSRHPGFDSWGQGTQVTVSS,low polyreactivity
19,QVQLVESGGGLVQAGGSLRLSCAASGRIFYWYAMGWYRQAPGKERELVAAISGSDGSTYYADSVKGRFTISRDNAKNTVYLQMNSLKPEDTAVYYCADEGSYPRMDYWGQGTQVTVSS,low polyreactivity
20,QVQLVESGGGLVQAGGSLRLSCAASGGTFVANTMGWYRQAPGKERELVAAITWSGGRTYYADSVKGRFTISRDNAKNTVYLQMNSLKPEDTAVYYCNADYYRKAESSPEGYDYWGQGTQVTVSS,high polyreactivity
21,QVQLVESGGGLVQAGGSLRLSCAASGSTFGGYAMGWYRQAPGKERELVADIDSIGGSTYYADSVKGRFTISRDNAKNTVYLQMNSLKPEDTAVYYCAARRFDTALVLYDYWGQGTQVTVSS,low polyreactivity

row,Sequence,polyreactivity (PSR sort gate)
1,QVQLVESGGGLVQAGGSLRLSCAASGFIFRGYAMGWYRQAPGKERELVAVISRSGTSTYYADSVKGRFTISRDNAKNTVYLQMNSLKPEDTAVYYCAKEVWPRYIRQAYLSGYESWGQGTQVTVSS,high polyreactivity
2,QVQLVESGGGLVQAGGSLRLSCAASGIIFSDYGMGWDRQAPGKERELVAAINSGGRTYSADSVKGRFTISRDNAKNTVYLQMNSLKPEDTAVYYCAADTQGSRYDYWGQGTQVTVSS,high polyreactivity
3,QVQLVESGGGLVQAGGSLRLSCAASGGTFQSNAKGWYRQAPGKERELVASITSRGSSTYYADSVKGRFTISRDNAKNTVYLQMNSLKPEDTAVFYCAKGRSLQMYYKGGIKGGYWGQGTQVTVSS,low polyreactivity
4,QEQLLESGGGLLQAGGSLRLSCAASGSNFVSVTMGWYRQATGKELELVASIGRGSTTNHADSVKGRFTISRDNAKNIVYLLMNSLKPEDTAVYYCAALESYGKYHGYWGQGTQVTVSS,low polyreactivity
5,KVQLVESGGGLVQAGASLRLSCAASGSIFATYAMGWYREEPGKERELVAAITSSDGSTNYADSVKGRFTISRDYAKNTVYLQMNSLKPEDTAVYYCATVSPDRTDSDSGFDAGYDYWGQGTQVTLSS,low polyreactivity
6,QVQLVESGGGLVQAGGSLRLSCAASGSIFKVYAMGWYRQAPGKERELVATISGSGGSTYYADSVKGRFTISRDNAKKTVYLQMNSLKPEDTAVYYCAADAGYAFAVGGGWVEALYDYWGQGTQVTVSS,low polyreactivity
7,QVQLVESGGGLVQAGGSLRLSCAASGLTFPSNAMGWYRQAPGKERELVAAISKRGGRTFYADSVKGRFTISRDNAKNTVYLQMNSLKPEDTAVYYCATPYAYPGTVQYAGYNYWGQGTQVTVSS,high polyreactivity
8,QVQLVESGGGLVQAGGSLRLSCAASGSIFTTYAMGWYRQAPGKERELVAAISSGGGTNYADSVKGRFTISRDNAKNTVYLQMNSLKPEDTAVYYCNKRYYRLQLHNAYGATPRRNYWGQGTQVTVSS,low polyreactivity
9,QVQLVESGGGLVQAGGSLRLSCAASGSTFPYYAMGWYRQAPGKERELVAAISSSGSRTYYADSVKGRFTISRDNAKNTVYLQMNSLKPEDTAVYYCAADNAAQPYPAGMDYWGQGTQVTVSS,low polyreactivity
10,QVQLVESGGGLVQAGGSLRISCAASGNILFSYAMGWYRQAPGKERELVAAISRSGGSTYYADSVKGRFTISRDNAKNTVYLQMNSLKPEDTAVYYCNTYSIAYYSPGYDYWGQGTQVTVSS,high polyreactivity
11,QVQLVETGGGLVQAGGSLRLSCAASGSILYYKPMGWYRQAPGKERELVASISLTGGSTTYADSVKGRFTISRDNAKNTVYLQMNSLKPEDTAVYYCNATQYPAADRSTNNYGGGFDSWGQGTQVTVSS,low polyreactivity
12,QVQLVESGGGLVQAGGSLRLSCAASGRIFRAYARGWYRQAPGKERELVAAITRGGGTYYADSVKGRFTISRDNAKNSVYLQMNSLKPEDTAVYYCAAGRQRGPGYYFTFDYWGQGTQVTVSS,high polyreactivity
13,QVQLVESGGCLVQAGGSLRLRCAASGRIFLRYDMGWYRQAPGKERELVAAISSGASTYYADSVKGRFTISRDNAKNTVYLQMNSLKPEDTAVFYCAVDRPYYYGYRMDYWGQGSQVTVSS,low polyreactivity
14,QVQLVESGGGLVQAGGSLRLSCAASGRIFKVYAMGWYRQAPGKERELVAAITWSGVSTYADSVKGRFTISRDNAKNTVYLQMNSLKPEDTAVYYCAAYLRSPGDRQGYYYWGQGTQVTVSS,high polyreactivity
15,QVQHVESGGGLVQAGGSLRLSCAASGRIFTTYAMGWYIQAPGKERELVAAISRSGGSTYYADSVKGRFTISRDNAKNTVYLQMNSLKPEDTAVYYCAAVPTSNSFRSSFYYWGQGTQVTVSS,high polyreactivity
16,QGQLVESGAGLVQAGGSLRLSCAASGFIFYDYVMGWYRQAPGKERELVAAITGSGGGTYYADSVKGRFTISRDNAKNTVYLQMNSLKPEDTAVYYCAADYISVYGYEYWGQGTQVTVSS,high polyreactivity
17,QDQLVESGGGLVQAGGSLRLSCAASGFIFLNYTMGWYRQAPGKERELVAAISNGSDRTYYADSVKGRFTISRDKAKNTVYLQMNSLTPEDTAVYYCAKDRDFSSPPTESGFDYWGQGTQVTVSS,low polyreactivity
18,QVQLVESGGGLVQAGGSLRLSCAASGRTFCSNAMGWYRQAPGKERELVARISWSGGSTYYADSVKGRFTISRDNAKNTVYLQMNSLKPEVTAVYYCAKYYPGRSAFSEGTYWGQGTQVTVSS,low polyreactivity
19,QVQLVESGGGLVQAGGSLRLICAASGIFASYAMGWYRQAPGKERELVAAIRSSGGRTYYADSVKGRFTISRDNAKNTVYLQMNSLKPEDTAVYYCAVASGQSFYWGQGTQVTVSS,high polyreactivity
20,QVQLLDSGGGLVQAGGSLRLSCAASGSTIAYYDMGWYRQAPGKERELVAAISWSGGSTYYADSVKGRFTISRENAKKTVYLQMNSLKPEDTAVYYCNRLLGYFTDSSGSPMGYWGQGTQVTVSS,high polyreactivity
21,QVQLVESGGGLVQAGGSLRLSCAASGNIFFRNARGWYRQAPGKERELVAAITWSGGSTYYADSVKGRFTISRDNAKNTVFLQMNSLKPEDTAVYYCAADAGQYFTYSGDDNLDYWGQGTQVTVSS,low polyreactivity
